Laboratory results from patent US20210380673A1.
One block for each substance: values may come before it.

Legend:
Assay in all cases: cell-based or functional assay
[1] = target: recombinant mouse CCL20 (mouse) (UniProt O89093)
[2] = target: recombinant human CCL20 (human) (UniProt P78556)
[3] = target: human CCR6 (human) (UniProt P51684)
Sequence of UniProt P51684 (P51684 whole entry): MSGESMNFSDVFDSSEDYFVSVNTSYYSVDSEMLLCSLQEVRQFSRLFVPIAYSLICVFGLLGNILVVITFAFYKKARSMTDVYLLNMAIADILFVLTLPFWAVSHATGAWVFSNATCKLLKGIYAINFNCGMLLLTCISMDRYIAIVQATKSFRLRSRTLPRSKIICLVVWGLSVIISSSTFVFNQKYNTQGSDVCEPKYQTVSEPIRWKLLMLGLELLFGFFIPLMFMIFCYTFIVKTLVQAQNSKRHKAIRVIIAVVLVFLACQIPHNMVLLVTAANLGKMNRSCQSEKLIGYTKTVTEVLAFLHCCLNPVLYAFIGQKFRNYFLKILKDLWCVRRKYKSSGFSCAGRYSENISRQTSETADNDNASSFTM

Sequence of UniProt P78556 (P78556 27-96 limits assumed): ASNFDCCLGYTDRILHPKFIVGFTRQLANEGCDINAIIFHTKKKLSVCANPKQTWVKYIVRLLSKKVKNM
Sequence of UniProt O89093 (O89093 28-97 limits assumed): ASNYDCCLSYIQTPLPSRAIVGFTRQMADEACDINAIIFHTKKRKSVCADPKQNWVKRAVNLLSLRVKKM

IC50, beta-arrestin translocation assay (CHO-K1 cells overexpressing mouse CCR6, stimulated with 1.2 nM mouse CCL20) [1]: 14 nM
Substance: anti-mouse CCL20 monoclonal antibody (clone 114908; R&D Systems)

IC50, beta-arrestin translocation assay (CHO-K1 cells overexpressing human CCR6, stimulated with 6 nM CCL20) [2]: 2.7 nM
IC50, cAMP assay (Ad293 cells overexpressing human CCR6, stimulated with 1 nM CCL20) [2]: 0.8 nM
Substance: neutralizing monoclonal antibody against human CCL20 (clone 67310; R&D Systems)

expression of NANOG, BMI1, OCT3/4 and SOX2 in CCR6+ against CCR6- NCIH508 cells after 48 hours with 100 pg/mL CCL20 [3]: 2 fold
Substance: recombinant human CCL20 (from UniProt P78556 27-96) (ligand)
